From article PMC3553987 come the findings set out here.

For the data set, the target named is c-Myc;Max isoform (human;human, UniProt P01106;P61244 16-454;2-160, |). Nature of the data set: TIRF-PBM.
c-Myc;Max isoform, sequence (P01106 16-454, chain 1 of 2): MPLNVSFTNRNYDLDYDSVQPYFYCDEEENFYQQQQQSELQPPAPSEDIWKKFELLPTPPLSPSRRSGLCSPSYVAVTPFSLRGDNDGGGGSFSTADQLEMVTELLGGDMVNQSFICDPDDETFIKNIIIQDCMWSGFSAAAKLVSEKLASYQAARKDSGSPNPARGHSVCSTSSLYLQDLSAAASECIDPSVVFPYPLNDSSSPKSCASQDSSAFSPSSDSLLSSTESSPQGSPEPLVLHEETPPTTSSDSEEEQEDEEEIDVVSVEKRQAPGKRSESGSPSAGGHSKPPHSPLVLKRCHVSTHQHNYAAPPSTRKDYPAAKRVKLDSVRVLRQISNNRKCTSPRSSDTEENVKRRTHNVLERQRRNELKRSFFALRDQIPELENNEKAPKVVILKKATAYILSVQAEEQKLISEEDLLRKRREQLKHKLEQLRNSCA
c-Myc;Max isoform, sequence (P61244 2-160, chain 2 of 2): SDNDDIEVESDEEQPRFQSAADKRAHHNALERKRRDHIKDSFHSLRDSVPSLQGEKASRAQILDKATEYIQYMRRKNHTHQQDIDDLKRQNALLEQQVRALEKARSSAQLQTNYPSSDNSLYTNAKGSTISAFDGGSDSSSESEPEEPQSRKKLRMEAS

B1: sequence 7 (12 A repeat) (dsDNA)
DNA 1: GCTACGAGCGCAAAAAAAAAAAAATGATAGCAAGCTCAAGTCAATCGGTCC
DNA 2: GGACCGATTGACTTGAGCTTGCTATCATTTTTTTTTTTTTGCGCTCGTAGC
modifications: 5' amino on one strand, coupled to hydrogel
With B1, the binding result is “binds”.
